Measured values published in US20220265759.

Biological target: T1, human chemokine receptor CCR10, P46092
T1 chain: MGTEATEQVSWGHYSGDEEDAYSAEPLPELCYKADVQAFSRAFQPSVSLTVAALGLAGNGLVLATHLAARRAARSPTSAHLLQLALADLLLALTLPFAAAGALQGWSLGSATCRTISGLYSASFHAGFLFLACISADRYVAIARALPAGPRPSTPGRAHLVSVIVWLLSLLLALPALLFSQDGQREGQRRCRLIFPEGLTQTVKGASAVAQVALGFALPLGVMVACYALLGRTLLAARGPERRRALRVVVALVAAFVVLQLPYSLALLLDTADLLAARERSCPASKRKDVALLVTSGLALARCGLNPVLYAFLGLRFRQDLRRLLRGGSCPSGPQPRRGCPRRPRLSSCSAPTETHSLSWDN

B1: human endothelial nitric oxide synthase (eNOS) (protein)
chain: GNLKSVAQEPGPPCGLGLGLGLGLCGKQGPATPAPEPSRAPASLLPPAPEHSPPSSPLTQPPEGPKFPRVKNWEVGSITYDTLSAQAQQDGPCTPRRCLGSLVFPRKLQGRPSPGPPAPEQLLSQARDFINQYYSSIKRSGSQAHEQRLQEVEAEVAATGTYQLRESELVFGAKQAWRNAPRCVGRIQWGKLQVFDARDCRSAQEMFTYICNHIKYATNRGNLRSAITVFPQRCPGRGDFRIWNSQLVRYAGYRQQDGSVRGDPANVEITELCIQHGWTPGNGRFDVLPLLLQAPDDPPELFLLPPELVLEVPLEHPTLEWFAALGLRWYALPAVSNMLLEIGGLEFPAAPFSGWYMSTEIGTRNLCDPHRYNILEDVAVCMDLDTRTTSSLWKDKAAVEINVAVLHSYQLAKVTIVDHHAATASFMKHLENEQKARGGCPADWAWIVPPISGSLTPVFHQEMVNYFLSPAFRYQPDPWKGSAAKGTGITRKKTFKEVANAVKISASLMGTVMAKRVKATILYGSETGRAQSYAQQLGRLFRKAFDPRVLCMDEYDVVSLEHETLVLVVTSTFGNGDPPENGESFAAALMEMSGPYNSSPRPEQHKSYKIRFNSISCSDPLVSSWRRKRKESSNTDSAGALGTLRFCVFGLGSRAYPHFCAFARAVDTRLEELGGERLLQLGQGDELCGQEEAFRGWAQAAFQAACETFCVGEDAKAAARDIFSPKRSWKRQRYRLSAQAEGLQLLPGLIHVHRRKMFQATIRSVENLQSSKSTRATILVRLDTGGQEGLQYQPGDHIGVCPPNRPGLVEALLSRVEDPPAPTEPVAVEQLEKGSPGGPPPGWVRDPRLPPCTLRQALTFFLDITSPPSPQLLRLLSTLAEEPREQQELEALSQDPRRYEEWKWFRCPTLLEVLEQFPSVALPAPLLLTQLPLLQPRYYSVSSAPSTHPGEIHLTVAVLAYRTQDGLGPLHYGVCSTWLSQLKPGDPVPCFIRGAPSFRLPPDPSLPCILVGPGTGIAPFRGFWQERLHDIESKGLQPTPMTLVFGCRCSQLDHLYRDEVQNAQQRGVFGRVLTAFSREPDNPKTYVQDILRTELAAEVHRVLCLERGHMFVCGDVTMATNVLQTVQRILATEGDMELDEAGDVIGVLRDQQRYHEDIFGLTLRTQEVTSRIRTQSFSLQERQLRGAVPWAFDPPGSDTNSP
eNOS phosphorylation (Ser1177) in presence of Myr-CBD7: eNOS phosphorylation (Ser1177) was significantly enhanced in presence of Myr-CBD7 | phosphorylation of eNOS after CCR10 siRNA knockdown (western blot, A23187 stimulation): phosphorylation of eNOS was significantly increased compared to control siRNA, even at 0 minutes
